Source: patent publication US20160024487

How the values were obtained:
[1] = target: T1, Lys(Dnp)-ATNATQPPRIVGG-Lys(Abz)
T1 chain: KATNATQPPRIVGGK

[2] = target: T2, Lys(Dnp)-ATNATNPPRIVGG-Lys(Abz)
T2 chain: KATNATNPPRIVGGK

[3] = target: T3, Lys(Dnp)-ATNATKPPRIVGG-Lys(Abz)
T3 chain: KATNATKPPRIVGGK

[4] = target: T4, Lys(Dnp)-EDSDRAIEGRIVGG-Lys(Abz)
T4 chain: KEDSDRAIEGRIVGGK

[5] = target: T5, Lys(Dnp)-ATNATDSPRIVGG-Lys(Abz)
T5 chain: KATNATDSPRIVGGK

[6] = target: T6, Lys(Dnp)-DFLAEGGGVRIVGG-Lys(Abz)
T6 chain: KDFLAEGGGVRIVGGK

[7] = target: T7, Lys(Dnp)-DNEEGFFSARIVGG-Lys(Abz)
T7 chain: KDNEEGFFSARIVGGK

[8] = target: T8, Lys(Dnp)-ATNATDWPRIVGG-Lys(Abz)
T8 chain: KATNATDWPRIVGGK

[9] = target: T9, Lys(Dnp)-YDEDENQSPRIVGG-Lys(Abz)
T9 chain: KYDEDENQSPRIVGGK

[10] = target: T10, Lys(Dnp)-NRLAAALGIRIVGG-Lys(Abz)
T10 chain: KNRLAAALGIRIVGGK

[11] = target: T11, Lys(Dnp)-TNATLDPRIVGG-Lys(Abz)
T11 chain: KTNATLDPRIVGGK

[12] = target: T12, Lys(Dnp)-LSKNNAIEPRIVGG-Lys(Abz)
T12 chain: KLSKNNAIEPRIVGGK

[13] = target: T13, Lys(Dnp)-ATNATLPPRIVGG-Lys(Abz)
T13 chain: KATNATLPPRIVGGK

[14] = target: T14, Lys(Dnp)-RGDSVVYGLRIVGG-Lys(Abz)
T14 chain: KRGDSVVYGLRIVGGK

[15] = target: T15, Lys(Dnp)-ASTAVVIAGRIVGG-Lys(Abz)
T15 chain: KASTAVVIAGRIVGGK

[16] = target: T16, Lys(Dnp)-DQVTVAMTPRIVGG-Lys(Abz)
T16 chain: KDQVTVAMTPRIVGGK

[17] = target: T17, Lys(Dnp)-ATNATDKPRIVGG-Lys(Abz)
T17 chain: KATNATDKPRIVGGK

[18] = target: T18, Lys(Dnp)-PDNIAAWYLRIVGG-Lys(Abz)
T18 chain: KPDNIAAWYLRIVGGK

[19] = target: T19, Lys(Dnp)-ATNATENPRIVGG-Lys(Abz)
T19 chain: KATNATENPRIVGGK

[20] = target: T20, Lys(Dnp)-EDQEDQVDPRIVGG-Lys(Abz)
T20 chain: KEDQEDQVDPRIVGGK

[21] = target: T21, Lys(Dnp)-DFLAEGGGPRIVGG-Lys(Abz)
T21 chain: KDFLAEGGGPRIVGGK

[22] = target: T22, Lys(Dnp)-SEYQTFFNPRIVGG-Lys(Abz)
T22 chain: KSEYQTFFNPRIVGGK

[23] = target: T23, Lys(Dnp)-STPSILPAPRIVGG-Lys(Abz)
T23 chain: KSTPSILPAPRIVGGK

[24] = target: T24, Lys(Dnp)-NESTTKIKPRIVGG-Lys(Abz)
T24 chain: KNESTTKIKPRIVGGK

[25] = target: T25, Lys(Dnp)-ATLDPRIVGG-Lys(Abz)
T25 chain: KATLDPRIVGGK

[26] = target: T26, Lys(Dnp)-ATNATDIPRIVGG-Lys(Abz)
T26 chain: KATNATDIPRIVGGK

[27] = target: T27, Lys(Dnp)-HTHHAPLSPRIVGG-Lys(Abz)
T27 chain: KHTHHAPLSPRIVGGK

[28] = target: T28, Lys(Dnp)-TVELQGVVPRIVGG-Lys(Abz)
T28 chain: KTVELQGVVPRIVGGK

[29] = target: T29, Lys(Dnp)-ATNATNDPRIVGG-Lys(Abz)
T29 chain: KATNATNDPRIVGGK

[30] = target: T30, Lys(Dnp)-ATNATDPPRIVGG-Lys(Abz)
T30 chain: KATNATDPPRIVGGK

[31] = target: T31, Lys(Dnp)-QISNDTVSPRIVGG-Lys(Abz)
T31 chain: KQISNDTVSPRIVGGK

[32] = target: T32, Lys(Dnp)-NLAKPTLPIKIVGG-Lys(Abz)
T32 chain: KNLAKPTLPIKIVGGK

[33] = target: T33, Lys(Dnp)-ATNATRQPRIVGG-Lys(Abz)
T33 chain: KATNATRQPRIVGGK

B1: Human plasma purified Factor Xa (Molecular Innovations, Inc) (protein)
chain 1: ANSFLEEMKKGHLERECMEETCSYEEAREVFEDSDKTNEFWNKYKDGDQCETSPCQNQGKCKDGLGEYTCTCLEGFEGKNCELFTRKLCSLDNGDCDQFCHEEQNSVVCSCARGYTLADNGKACIPTGPYPCGKQTLERRKR
chain 2: IVGGQECKDGECPWQALLINEENEGFCGGTILSEFYILTAAHCLYQAKRFKVRVGDRNTEQEEGGEAVHEVEVVIKHNRFTKETYDFDIAVLRLKTPITFRMNVAPACLPERDWAESTLMTQKTGIVSGFGRTHEKGRQSTRLKMLEVPYVDRNSCKLSSSFIITQNMFCAGYDTKQEDACQGDSGGPHVTRFKDTYFVTGIVSWGEGCARKGKYGIYTKVTAFLKWIDRSMKTRGLPKAKSHAPEVITSSPLK
FXa kcat/KM [1]: 9.5 M⁻¹ s⁻¹ | FXa kcat/KM [2]: 2.9 M⁻¹ s⁻¹ | FXa kcat/KM [3]: 8.7 M⁻¹ s⁻¹ | FXa kcat/KM [4]: 1900 M⁻¹ s⁻¹ | FXa kcat/KM [5]: 4.4 M⁻¹ s⁻¹ | FXa kcat/KM [6]: 3.4 M⁻¹ s⁻¹ | FXa kcat/KM [7]: 230 M⁻¹ s⁻¹ | FXa kcat/KM [8]: 7.2 M⁻¹ s⁻¹ | FXa kcat/KM [9]: 320 M⁻¹ s⁻¹ | FXa kcat/KM [10]: 350 M⁻¹ s⁻¹ | FXa kcat/KM [11]: 860 M⁻¹ s⁻¹ | FXa kcat/KM [12]: 1000 M⁻¹ s⁻¹ | FXa kcat/KM [13]: 1.6 M⁻¹ s⁻¹ | FXa kcat/KM [14]: 1.7 M⁻¹ s⁻¹ | FXa kcat/KM [15]: 2.1 M⁻¹ s⁻¹ | FXa kcat/KM [16]: 470 M⁻¹ s⁻¹ | FXa kcat/KM [17]: 11 M⁻¹ s⁻¹ | FXa kcat/KM [18]: 15 M⁻¹ s⁻¹ | FXa kcat/KM [19]: 3.3 M⁻¹ s⁻¹ | FXa kcat/KM [20]: 13 M⁻¹ s⁻¹ | FXa kcat/KM [21]: 5.8 M⁻¹ s⁻¹ | FXa kcat/KM [22]: 140 M⁻¹ s⁻¹ | FXa kcat/KM [23]: 230 M⁻¹ s⁻¹ | FXa kcat/KM [24]: 36 M⁻¹ s⁻¹ | FXa kcat/KM [25]: 940 M⁻¹ s⁻¹ | FXa kcat/KM [26]: 41 M⁻¹ s⁻¹ | FXa kcat/KM [27]: 100 M⁻¹ s⁻¹ | FXa kcat/KM [28]: 100 M⁻¹ s⁻¹ | FXa kcat/KM [29]: 30 M⁻¹ s⁻¹ | FXa kcat/KM [30]: 1.6 M⁻¹ s⁻¹ | FXa kcat/KM [31]: 340 M⁻¹ s⁻¹ | FXa kcat/KM [32]: 3 M⁻¹ s⁻¹ | FXa kcat/KM [33]: 4500 M⁻¹ s⁻¹
